According to patent publication US20230381229A1 (ALPINE IMMUNE SCIENCES, INC., published 2023):
Residue numbers refer to the chain shown, from its start. Names and notes keep the numbering of the source.

B1: variant CD155 IgV-Fc P18F, E51V, S54G, Q60R, L79Q, E82G, S87T, M90I, F91S, G92R, T107M (Fc fusion)
chain: WPPPGTGDVVVQAPTQVFGFLGDSVTLPCYLQVPNMEVTHVSQLTWARHGVSGGMAVFHRTQGPSYSESKRLEFVAARQGAGLRNATLRISRLRVEDEGNYTCLFVMFPQGSRSVDIWLRVLGSGGGGSEPKSSDKTHTCPPCPAPEAEGAPSVFLFPPKPKDTLMISRTPEVTCVVVDVSHEDPEVKFNWYVDGVEVHNAKTKPREEQYNSTYRVVSVLTVLHQDWLNGKEYKCKVSNKALPAPIEKTISKAKGQPREPQVYTLPPSRDELTKNQVSLTCLVKGFYPSDIAVEWESNGQPENNYKTTPPVLDSDGSFFLYSKLTVDKSRWQQGNVFSCSVMHEALHNHYTQKSLSLSPGK
B2: variant CD155 IgV-Fc P18T, G19D, M36T, S54N, L79P, L83Q, F91S, T107M, F108Y (Fc fusion)
chain: WPPPGTGDVVVQAPTQVTDFLGDSVTLPCYLQVPNTEVTHVSQLTWARHGESGNMAVFHQTQGPSYSESKRLEFVAARPGAEQRNASLRMSGLRVEDEGNYTCLFVMYPQGSRSVDIWLRVLGSGGGGSEPKSSDKTHTCPPCPAPEAEGAPSVFLFPPKPKDTLMISRTPEVTCVVVDVSHEDPEVKFNWYVDGVEVHNAKTKPREEQYNSTYRVVSVLTVLHQDWLNGKEYKCKVSNKALPAPIEKTISKAKGQPREPQVYTLPPSRDELTKNQVSLTCLVKGFYPSDIAVEWESNGQPENNYKTTPPVLDSDGSFFLYSKLTVDKSRWQQGNVFSCSVMHEALHNHYTQKSLSLSPGK
B3: variant CD155 IgV-Fc P18S, P34S, E51V, L79P, F91S, G111R (Fc fusion)
chain: B2 chain with T18S, D19G, P34S, T36M, E51V, N54S, Q83L, M107T, Y108F, G111R
B4: variant CD155 IgV-Fc V10F, T15S, P18L, R48Q, L79P, F91S, T107M, V115M (Fc fusion)
chain: B2 chain with V10F, T15S, T18L, D19G, T36M, R48Q, N54S, Q83L, Y108F, V115M
B5: variant CD155 IgV-Fc V9L, P18L, M55V, S69L, L79P, A81E, F91S, T107M (Fc fusion)
chain: B2 chain with V9L, T18L, D19G, T36M, N54S, M55V, S69L, A81E, Q83L, Y108F
B6: variant CD155 IgV-Fc P18T, D23G, Q60R, S67L, L79P, F91S, T107M, V115A (Fc fusion)
chain: B2 chain with D19G, D23G, T36M, N54S, Q60R, S67L, Q83L, Y108F, V115A
B7: variant CD155 IgV-Fc Q12H, P18T, L21S, G22S, V57A, Q62R, L79P, F91S, T107M (Fc fusion)
chain: B2 chain with Q12H, D19G, L21S, G22S, T36M, N54S, V57A, Q62R, Q83L, Y108F
B8: variant CD155 IgV-Fc P18T, T39S, S52P, S54R, L79P, F91S, T107M (Fc fusion)
chain: B2 chain with D19G, T36M, T39S, S52P, N54R, Q83L, Y108F
B9: variant CD155 IgV-Fc P18S, H59N, V75A, L79P, A81T, F91S, L104M, T107M (Fc fusion)
chain: B2 chain with T18S, D19G, T36M, N54S, H59N, V75A, A81T, Q83L, L104M, Y108F
B10: variant CD155 IgV-Fc P18S, W46R, E68D, L79P, F91S, T107M, R113G (Fc fusion)
chain: B2 chain with T18S, D19G, T36M, W46R, N54S, E68D, Q83L, Y108F, R113G
B11: variant CD155 IgV-Fc V9I, P18F, A47E, G50S, E68G, L79P, F91S, T107M (Fc fusion)
chain: B2 chain with V9I, T18F, D19G, T36M, A47E, G50S, N54S, E68G, Q83L, Y108F
B12: variant CD155 IgV-Fc P18S, L21M, Y30F, N35D, R84W, F91S, T107M, D116G (Fc fusion)
chain: WPPPGTGDVVVQAPTQVSGFMGDSVTLPCFLQVPDMEVTHVSQLTWARHGESGSMAVFHQTQGPSYSESKRLEFVAARLGAELWNASLRMSGLRVEDEGNYTCLFVMFPQGSRSVGIWLRVLGSGGGGSEPKSSDKTHTCPPCPAPEAEGAPSVFLFPPKPKDTLMISRTPEVTCVVVDVSHEDPEVKFNWYVDGVEVHNAKTKPREEQYNSTYRVVSVLTVLHQDWLNGKEYKCKVSNKALPAPIEKTISKAKGQPREPQVYTLPPSRDELTKNQVSLTCLVKGFYPSDIAVEWESNGQPENNYKTTPPVLDSDGSFFLYSKLTVDKSRWQQGNVFSCSVMHEALHNHYTQKSLSLSPGK
B13: variant CD155 IgV-Fc D8G, V9I, V11A, P18T, T26M, S52P, L79P, F91S, G92A, T107L, V115A (Fc fusion)
chain: WPPPGTGGIVAQAPTQVTGFLGDSVMLPCYLQVPNMEVTHVSQLTWARHGEPGSMAVFHQTQGPSYSESKRLEFVAARPGAELRNASLRMSALRVEDEGNYTCLFVLFPQGSRSADIWLRVLGSGGGGSEPKSSDKTHTCPPCPAPEAEGAPSVFLFPPKPKDTLMISRTPEVTCVVVDVSHEDPEVKFNWYVDGVEVHNAKTKPREEQYNSTYRVVSVLTVLHQDWLNGKEYKCKVSNKALPAPIEKTISKAKGQPREPQVYTLPPSRDELTKNQVSLTCLVKGFYPSDIAVEWESNGQPENNYKTTPPVLDSDGSFFLYSKLTVDKSRWQQGNVFSCSVMHEALHNHYTQKSLSLSPGK
B14: variant CD155 IgV-Fc P18T, W46C, H49R, S65A, S67V, A76T, L79P, S87T, L104M (Fc fusion)
chain: WPPPGTGDVVVQAPTQVTGFLGDSVTLPCYLQVPNMEVTHVSQLTCARRGESGSMAVFHQTQGPAYVESKRLEFVTARPGAELRNATLRMFGLRVEDEGNYTCMFVTFPQGSRSVDIWLRVLGSGGGGSEPKSSDKTHTCPPCPAPEAEGAPSVFLFPPKPKDTLMISRTPEVTCVVVDVSHEDPEVKFNWYVDGVEVHNAKTKPREEQYNSTYRVVSVLTVLHQDWLNGKEYKCKVSNKALPAPIEKTISKAKGQPREPQVYTLPPSRDELTKNQVSLTCLVKGFYPSDIAVEWESNGQPENNYKTTPPVLDSDGSFFLYSKLTVDKSRWQQGNVFSCSVMHEALHNHYTQKSLSLSPGK
B15: variant CD155 IgV-Fc P18S, Q32R, Q62K, R78G, L79P, F91S, T107A, R113W (Fc fusion)
chain: WPPPGTGDVVVQAPTQVSGFLGDSVTLPCYLRVPNMEVTHVSQLTWARHGESGSMAVFHQTKGPSYSESKRLEFVAAGPGAELRNASLRMSGLRVEDEGNYTCLFVAFPQGSWSVDIWLRVLGSGGGGSEPKSSDKTHTCPPCPAPEAEGAPSVFLFPPKPKDTLMISRTPEVTCVVVDVSHEDPEVKFNWYVDGVEVHNAKTKPREEQYNSTYRVVSVLTVLHQDWLNGKEYKCKVSNKALPAPIEKTISKAKGQPREPQVYTLPPSRDELTKNQVSLTCLVKGFYPSDIAVEWESNGQPENNYKTTPPVLDSDGSFFLYSKLTVDKSRWQQGNVFSCSVMHEALHNHYTQKSLSLSPGK
B16: variant CD155 IgV-Fc V9I, P18S, S24P, H49Q, F58Y, Q60R, Q62K, L79P, F91S, T107M (Fc fusion)
chain: B15 chain with V9I, S24P, R32Q, H49Q, F58Y, Q60R, G78R, A107M, W113R

Molecular target: T1, TIGIT (human)
T1 chain: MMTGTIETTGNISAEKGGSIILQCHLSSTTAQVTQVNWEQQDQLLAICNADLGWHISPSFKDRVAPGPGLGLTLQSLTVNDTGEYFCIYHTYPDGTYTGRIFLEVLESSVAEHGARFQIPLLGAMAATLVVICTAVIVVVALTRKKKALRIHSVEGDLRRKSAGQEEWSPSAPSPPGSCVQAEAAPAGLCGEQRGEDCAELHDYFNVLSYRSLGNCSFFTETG
Test: cell-based or functional assay

First: B1
Second: B2
The “IL-2 luciferase reporter, Normalized Fold Change from CD155-ECD” value of the first is higher: 5.8 fold for the first, 0.3 fold for the second.

Going from B3 to B4, the “IL-2 luciferase reporter, Normalized Fold Change from CD155-ECD” value falls from 2.1 fold to -3.4 fold.

First: B5
Second: B6
The “IL-2 luciferase reporter, Normalized Fold Change from CD155-ECD” value of the first is lower: 3.1 fold for the first, 8.6 fold for the second.

Compared with B7, B8 is higher in “IL-2 luciferase reporter, Normalized Fold Change from CD155-ECD” value: -4.1 fold for the first, -0.1 fold for the second.

Going from B9 to B10, the “IL-2 luciferase reporter, Normalized Fold Change from CD155-ECD” value falls from 3.5 fold to 0.9 fold.

Compared with B11, B12 is lower in “IL-2 luciferase reporter, Normalized Fold Change from CD155-ECD” value: 3 fold for the first, -2.2 fold for the second.

Going from B13 to B14, the “IL-2 luciferase reporter, Normalized Fold Change from CD155-ECD” value falls from 8.4 fold to -3.4 fold.

First: B15
Second: B16
The “IL-2 luciferase reporter, Normalized Fold Change from CD155-ECD” value of the first is lower: -2.2 fold for the first, 1.1 fold for the second.
